We go through 11 molecules from US20110311550A1 (Scripps Research, published 2011).

What all share (assay): ELISA, Fab on E1E2 antigen
The target of assay [1] is HCV E1E2 antigen, isolate UKN4.21.16 (hepatitis C virus, isolate UKN4.21.16).
Assay [2] has as its target HCV E1E2 antigen, isolate UKN5.15.7 (hepatitis C virus, isolate UKN5.15.7).
Assay [3] concerns the target HCV E1E2 antigen, isolate J6E3 (hepatitis C virus, isolate J6E3, UniProt P26660 192-383; P26660 384-750).
Assay [4] concerns the target HCV E1E2 antigen, isolate OH8 (hepatitis C virus, isolate OH8).
Assay [5] concerns the target HCV E1E2 antigen, isolate CH35 (hepatitis C virus, isolate CH35).
The target in assay [6] is HCV E1E2 antigen, isolate UKN3A1.28c (hepatitis C virus, isolate UKN3A1.28c).
For assay [7], the target named is T1, HCV E1E2 antigen, isolate JFH (hepatitis C virus, isolate JFH, UniProt Q99IB8 192-383; Q99IB8 384-750).
T1 construct: also called JFH-1

Assay [8] concerns the target HCV E1E2 antigen, isolate UKN1B12.16 (hepatitis C virus, isolate UKN1B12.16).
In assay [9] the target is HCV E1E2 antigen, isolate UKN6.5.8 (hepatitis C virus, isolate UKN6.5.8).
Assay [10] concerns the target HCV E1E2 antigen, isolate UKN2B1.1 (hepatitis C virus, isolate UKN2B1.1).

Positions count from the first letter of the chain named.

B1: Fab P3 (Fab, V domains shown)
VH: EVQLLESGGGVVQPGKSLRLSCAVSGFTLNTFAMHWVRQVPGKGLEWVALTSHDGSRQDYADSVRGRFTISRDNSKSMVFLLMNSLRAEDTAVYYCVRGGPAYYTYNDVLTGYAYVVGDFWGQGTLVTVSS
VL: not shown
As for B1, the “OD 450 nm” value is 0.15 OD 450 nm in assay [1]; 0.06 OD 450 nm in assay [2]; 0.11 OD 450 nm in assay [3]; 0.36 OD 450 nm in [4]; 0.11 OD 450 nm in assay [5]; 0.33 OD 450 nm in [6]. For the same molecule, the “OD 450 nm” value in assay [7] came to 0 OD 450 nm; in [8], 0.2 OD 450 nm; in assay [9], 0.03 OD 450 nm; in assay [10], 0 OD 450 nm.

B2: Fab V1 (Fab, V domains shown)
VH: VQLLEQSGAEVQKPGASVKVSCKPSGYIFTNFGISWVRQAPGQGLEWMAWINTYNGKTTYAQSLQGRVTLTTDPYTNTVFMELRSLRSDDTAVYYCARENEGEYVWGHFRSDYWGQGTLVTVSS
VL: ELTQSPSSLSASVGDRVTITCQASQDISNFLNWYQRRPGKAPNLLIYDATHLETGVPSRFSGSGFGTHFTLTINSLQPEDIGTYYCQHFDDVPSFTFGPGTKVDLKR
B2: the “OD 450 nm” value in [1] was 1.02 OD 450 nm; in assay [2], 0.3 OD 450 nm; in assay [4] it was 1.35 OD 450 nm; in assay [5] it was 0.77 OD 450 nm; in assay [6], 0.06 OD 450 nm; in assay [8] it was 0.16 OD 450 nm. For the same molecule, the “OD 450 nm” value in [9] stood at 0.05 OD 450 nm; in [10] it was 0.3 OD 450 nm.

B3: Fab P2 (Fab, V domains shown)
VH: EVQLLESGGGVVQPGRSLRLSCAASGFTLDTFTMHWVRQSPGKGLEWVALISHDANNKDYADSVKGRFTISRDNSKKLVYLQMDSLRSEDTAVYYCARGGPAYYLYSDVLTGFHNVVGDYWGQGTLVTVSA
VL: not shown
Take B3: the “OD 450 nm” value is 0.78 OD 450 nm in assay [1]; 0.25 OD 450 nm in assay [2]; 0.6 OD 450 nm in [3]; 1 OD 450 nm in [4]; 0.47 OD 450 nm in assay [5]; 1.05 OD 450 nm in [6]. Besides, the “OD 450 nm” value in assay [7] is 0.88 OD 450 nm; in assay [8] it was 0.59 OD 450 nm; in [9], 0.22 OD 450 nm; in assay [10], 0.18 OD 450 nm.

B4: Fab O1 (Fab, V domains shown)
VH: VQLLEQSGAEVKKAGESVRLSCKASGYRFGDYWIAWVRQLPGRAPEWMGIIYPDDSDTKYSPSFQGQVTISADKSIRTTFLDWGSLKASDTAIYYCARGCLGAKCYYPHYYYGLDVWGQGTTVIVSS
VL: ELTQSPSSLSASVGDRVTITCRATQGIDNYLNWYQQKPGKPPRLLIYGASSLQSGVPSRFSGGGSGTHFTLTITNLQPEDFATYYCQQSYSTPPETFGQGTKVEIKR
Turning to B4, the “OD 450 nm” value was 0.57 OD 450 nm in assay [1]; 0.1 OD 450 nm in assay [2]; 0.05 OD 450 nm in assay [3]; 0.44 OD 450 nm in assay [4]; 0.27 OD 450 nm in [5]; 0.48 OD 450 nm in [6]. For the same molecule, the “OD 450 nm” value in assay [7] was found to be 0 OD 450 nm; in assay [8], 0.17 OD 450 nm; in [9], 0.02 OD 450 nm; in assay [10] it was 0.02 OD 450 nm.

B5: Fab N3 (Fab, V domains shown)
VH: VQLLEQSGAEVKKPGDSLRISCKMSGDSLVWIGWVRQKPGQGLEWMGIINPGDSATNIYPGDSDTRYGPSFQGQVTISIDKSTSTAYLQWNAVKASDTGIYYCARHVPVPISGTFLWREREMHDLGYFDDWGQGTLVIVSS
VL: not shown
As for B5, the “OD 450 nm” value is 0.96 OD 450 nm in assay [1]; 0.37 OD 450 nm in [2]; 0.66 OD 450 nm in [3]; 1.32 OD 450 nm in [4]; 0.59 OD 450 nm in [5]; 1.27 OD 450 nm in [6]. Moreover, the “OD 450 nm” value was 1.2 OD 450 nm in [7], 0.62 OD 450 nm in [8], 0.23 OD 450 nm in assay [9] and 0.29 OD 450 nm in assay [10].

B6: Fab P1 (Fab, V domains shown)
VH: EVQLLESGGGVVQPGGSLRLSCAASGFTFTSFTMHWVRQAPGKGLEWVALISHDGSNKDYADSVRGRFTVSRDNSKKMVYLQMSSLRPDDAAVYYCARGGPAYYTYSDTLTGYHNVVGDYWGQGTLVTVSS
VL: ELTQSPGTLSLSPGERATLSCRASQVRGFLAWFQQKPGQAPRLLIYGASNRAPGIPDRFSGSGSGTDFTLTISRLEPEDFAVYYCQQYGDSPPITFGQGTRLEIKR
Regarding B6, the “OD 450 nm” value came out at 0.62 OD 450 nm in [1]; 0.17 OD 450 nm in assay [2]; 0.08 OD 450 nm in [3]; 0.8 OD 450 nm in assay [4]; 0.27 OD 450 nm in assay [5]; 0.98 OD 450 nm in assay [6]. The “OD 450 nm” value in [8] was 0.26 OD 450 nm; in [9] it was 0.06 OD 450 nm; in [10] it was 0.03 OD 450 nm.

B7: Fab P1a (Fab, V domains shown)
VH: B6 VH
VL: ELTQSPGTLSLSPGERATLSCRTSQSVSSTYLAWYQQKPGQPPRLLIYGASNRAPGIPDRFSGSGSGTDFTLTISRLEPEDFAVYYCQQYGDSPPITFGQGTRLDIKR
Turning to B7, the “OD 450 nm” value is 0.04 OD 450 nm in [1]; -0.04 OD 450 nm in [2]; 0.03 OD 450 nm in assay [3]; 0.24 OD 450 nm in [4]; 0.08 OD 450 nm in assay [5]; 0.18 OD 450 nm in assay [6]. For the same molecule, the “OD 450 nm” value in assay [7] is 0 OD 450 nm; in [8] it was 0.15 OD 450 nm; in assay [9], 0.05 OD 450 nm; in [10], 0 OD 450 nm.

B8: Fab P4 (Fab, V domains shown)
VH: not shown
VL: ELTQSPGTLSLSPGERATLSCRASQSVSSSNLAWFQHKSGRAPRLLIYGASNRAPDIPDRFSGSGSGTDFTLSISRLEPEDFAVYYCQRYGDSPPITFGQGTRLEIKR
In the case of B8, the “OD 450 nm” value is 0.99 OD 450 nm in assay [1]; 0.31 OD 450 nm in [2]; 1.15 OD 450 nm in [4]; 0.52 OD 450 nm in assay [5]; 1.07 OD 450 nm in [6]; 0.45 OD 450 nm in [7]. Also, the figures for the “OD 450 nm” value in assay [8], in assay [9] and in assay [10] were 0.59 OD 450 nm, 0.19 OD 450 nm and 0.09 OD 450 nm, respectively.

B9: Fab N1 (Fab, V domains shown)
VH: VQLLEQSGPEVKKPGDSLRISCKMSGDSLVTTWIGWVRQKPGQGLEWMGIINPGDSSTNIYPGDSATRYGPSFQGQVTISIDKSTSTAYLQWNAVKPSDTGIYYCARHVPVPISGTFLWREREMHDFGYFDDWGQGTLVIVSS
VL: ELTQSPGTLSLSPGERATLSCRASQSVSSSYLAWYQQKPGQAPRLLIYGASNRAAGIPDRFSGSGSGADFTLTISRLEPEDFAVYYCQQYGSSLITFGQGTRLEIKR
In the case of B9, the “OD 450 nm” value was 0.93 OD 450 nm in assay [1]; 0.43 OD 450 nm in assay [2]; 0.64 OD 450 nm in assay [3]; 1.13 OD 450 nm in assay [4]; 0.59 OD 450 nm in [5]; 1.08 OD 450 nm in [6]. Also, the “OD 450 nm” value in [7] stood at 0.99 OD 450 nm; in assay [8] it was 0.65 OD 450 nm; in [9], 0.29 OD 450 nm; in [10] it was 0.33 OD 450 nm.

B10: Fab N2 (Fab, V domains shown)
VH: B9 VH with A94T
VL: ELTQSPGTLSLFPGERATLSCRASQSILGRYLAWYQQKGGRAPRLLIFGASKRATGIPDRFSGSGSGTDFTLTIGRLEPEDFAVYYCQHYGSSITFGQGTRLDIKR
For the molecule B10, the “OD 450 nm” value in assay [1] amounted to 1.09 OD 450 nm; in assay [2], 0.46 OD 450 nm; in assay [3], 0.92 OD 450 nm; in [4], 1.44 OD 450 nm; in [5], 0.82 OD 450 nm; in assay [6], 1.36 OD 450 nm. Also, the “OD 450 nm” value in [7] is 1.34 OD 450 nm; in [8], 0.81 OD 450 nm; in [9] it was 0.4 OD 450 nm; in assay [10], 0.44 OD 450 nm.

B11: Fab N4 (Fab, V domains shown)
VH: B9 VH with A94N, P97A
VL: ELTLTQSPGTLSLSPGERATLSCRASQSVSNNYLAWYQQKPGQAPRLLIYGASSRATGIPDRFSGSGSGTGFTLIISRLEPEDFAVYYCQQYGSSSITFGQGTRLEIKR
On to B11, for which the “OD 450 nm” value in assay [1] was 1.49 OD 450 nm; in assay [2], 0.71 OD 450 nm; in [3], 0.99 OD 450 nm; in [4], 1.75 OD 450 nm; in assay [5], 1.03 OD 450 nm; in assay [6], 1.73 OD 450 nm. Also, the “OD 450 nm” value was found to be 1.57 OD 450 nm in [7], 1.06 OD 450 nm in assay [8], 0.44 OD 450 nm in assay [9] and 0.48 OD 450 nm in assay [10].
